In patent publication US20220017591A1 (AstraZeneca / MedImmune, published 2022):
Like-named read-outs stand apart in the source and are kept apart here.

B1: RELAX0117 (Fc fusion)
chain 1: QLYSALANKCCHVGCTKRSLARFCAAAGGGGSGGGGSGGGGSGGGGSACPPCPAPEFEGGPSVFLFPPKPKDTLMISRTPEVTCVVVDVSHEDPEVKFNWYVDGVEVHNAKTKPREEQYNSTYRVVSVLTVLHQDWLNGKEYKCKVSNKALPASIEKTISKAKGQPREPQVYTLPPCREEMTKNQVSLWCLVKGFYPSDIAVEWESNGQPENNYKTTPPVLDSDGSFFLYSKLTVDKSRWQQGNVFSCSVMHEALHNHYTQKSLSLSPGGGGGSGGGGSGGGGSGGGGGSQLYSALANKCCHVGCTKRSLARFC
chain 2: SWMEEVIKLCGRELVRAQIAICGMSTWSAAAGGGGSGGGGSGGGGSGGGGSACPPCPAPEFEGGPSVFLFPPKPKDTLMISRTPEVTCVVVDVSHEDPEVKFNWYVDGVEVHNAKTKPREEQYNSTYRVVSVLTVLHQDWLNGKEYKCKVSNKALPASIEKTISKAKGQPREPQVCTLPPSREEMTKNQVSLSCAVKGFYPSDIAVEWESNGQPENNYKTTPPVLDSDGSFFLVSKLTVDKSRWQQGNVFSCSVMHEALHNHYTQKSLSLSPGGGGGSGGGGSGGGGSGGGGGSSWMEEVIKLCGRELVRAQIAICGMSTWS
B2: RELAX0021 (Fc fusion)
chain 1: GGAGGACPPCPAPEFEGGPSVFLFPPKPKDTLMISRTPEVTCVVVDVSHEDPEVKFNWYVDGVEVHNAKTKPREEQYNSTYRVVSVLTVLHQDWLNGKEYKCKVSNKALPASIEKTISKAKGQPREPQVYTLPPSREEMTKNQVSLWCLVKGFYPSDIAVEWESNGQPENNYKTTPPVLDSDGSFFLYSKLTVDKSRWQQGNVFSCSVMHEALHNHYTQKSLSLSPGGGGGSGGGGSGGGGSGGGGGSQLYSALANKCCHVGCTKRSLARFC
chain 2: GGAGGACPPCPAPEFEGGPSVFLFPPKPKDTLMISRTPEVTCVVVDVSHEDPEVKFNWYVDGVEVHNAKTKPREEQYNSTYRVVSVLTVLHQDWLNGKEYKCKVSNKALPASIEKTISKAKGQPREPQVYTLPPSREEMTKNQVSLSCAVKGFYPSDIAVEWESNGQPENNYKTTPPVLDSDGSFFLVSKLTVDKSRWQQGNVFSCSVMHEALHNHYTQKSLSLSPGGGGGSGGGGSGGGGSGGGGGSSWMEEVIKLCGRELVRAQIAICGMSTWS
B3: RELAX0014 (recombinant murine Relaxin-1) (ligand)
chain 1: MRVSEEWMDGFIRMCGREYARELIKICGASVGR
chain 2: ESGGLMSQQCCHVGCSRRSIAKLYC

Tests used:
Experiment in all cases: cell-based or functional assay
human RXFP1 [1] = biological target: T1, human RXFP1 (human, UniProt Q9HBX9 1-757)
T1 sequence (looked up): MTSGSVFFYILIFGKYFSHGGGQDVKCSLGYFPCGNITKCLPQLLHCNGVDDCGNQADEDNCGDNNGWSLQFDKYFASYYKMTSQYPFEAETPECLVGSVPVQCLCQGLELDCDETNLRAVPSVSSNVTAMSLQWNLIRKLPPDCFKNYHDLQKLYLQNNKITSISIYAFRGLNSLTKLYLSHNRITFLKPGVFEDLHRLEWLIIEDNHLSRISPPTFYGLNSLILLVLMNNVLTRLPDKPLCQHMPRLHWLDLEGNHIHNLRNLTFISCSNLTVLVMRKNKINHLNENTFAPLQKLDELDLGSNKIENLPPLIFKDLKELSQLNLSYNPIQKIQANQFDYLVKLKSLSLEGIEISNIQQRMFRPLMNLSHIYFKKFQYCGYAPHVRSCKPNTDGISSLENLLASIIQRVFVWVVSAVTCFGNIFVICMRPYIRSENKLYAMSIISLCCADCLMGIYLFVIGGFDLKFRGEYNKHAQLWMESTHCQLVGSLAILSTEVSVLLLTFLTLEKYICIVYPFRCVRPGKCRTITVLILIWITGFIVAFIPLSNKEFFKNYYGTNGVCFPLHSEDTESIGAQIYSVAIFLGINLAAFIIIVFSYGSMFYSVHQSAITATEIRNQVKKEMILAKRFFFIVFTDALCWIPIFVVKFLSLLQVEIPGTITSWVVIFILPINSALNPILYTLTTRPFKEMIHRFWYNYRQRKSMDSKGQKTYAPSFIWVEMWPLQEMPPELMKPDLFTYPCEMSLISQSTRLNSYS

human RXFP1 [2] = biological target: T1, human RXFP1; remark: listed apart in the source
mouse RXFP1 [3] = biological target: T2, mouse RXFP1 (mouse, UniProt Q6R6I7 1-758)
T2 sequence (looked up): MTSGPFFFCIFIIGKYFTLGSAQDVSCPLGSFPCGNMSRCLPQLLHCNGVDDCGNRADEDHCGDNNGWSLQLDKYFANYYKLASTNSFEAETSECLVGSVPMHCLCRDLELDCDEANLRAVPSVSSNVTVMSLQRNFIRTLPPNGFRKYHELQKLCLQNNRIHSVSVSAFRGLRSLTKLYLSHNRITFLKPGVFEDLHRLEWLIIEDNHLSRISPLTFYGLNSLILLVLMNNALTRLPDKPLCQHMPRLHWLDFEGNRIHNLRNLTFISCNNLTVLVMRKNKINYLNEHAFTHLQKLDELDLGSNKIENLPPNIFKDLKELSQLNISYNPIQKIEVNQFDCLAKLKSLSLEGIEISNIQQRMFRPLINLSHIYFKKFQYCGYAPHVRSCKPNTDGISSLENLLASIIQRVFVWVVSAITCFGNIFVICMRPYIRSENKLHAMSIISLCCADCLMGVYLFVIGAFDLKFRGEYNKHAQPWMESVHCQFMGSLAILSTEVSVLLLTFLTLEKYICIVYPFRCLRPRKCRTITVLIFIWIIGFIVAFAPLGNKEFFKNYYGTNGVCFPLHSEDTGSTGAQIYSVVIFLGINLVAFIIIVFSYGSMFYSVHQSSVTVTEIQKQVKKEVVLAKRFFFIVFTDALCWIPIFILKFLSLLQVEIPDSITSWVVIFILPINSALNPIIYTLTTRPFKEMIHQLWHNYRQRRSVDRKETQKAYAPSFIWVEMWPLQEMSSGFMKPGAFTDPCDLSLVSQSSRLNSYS

human RXFP2 [4] = biological target: T3, human RXFP2 (human, UniProt Q8WXD0 1-754)
T3 sequence (Q8WXD0 whole entry): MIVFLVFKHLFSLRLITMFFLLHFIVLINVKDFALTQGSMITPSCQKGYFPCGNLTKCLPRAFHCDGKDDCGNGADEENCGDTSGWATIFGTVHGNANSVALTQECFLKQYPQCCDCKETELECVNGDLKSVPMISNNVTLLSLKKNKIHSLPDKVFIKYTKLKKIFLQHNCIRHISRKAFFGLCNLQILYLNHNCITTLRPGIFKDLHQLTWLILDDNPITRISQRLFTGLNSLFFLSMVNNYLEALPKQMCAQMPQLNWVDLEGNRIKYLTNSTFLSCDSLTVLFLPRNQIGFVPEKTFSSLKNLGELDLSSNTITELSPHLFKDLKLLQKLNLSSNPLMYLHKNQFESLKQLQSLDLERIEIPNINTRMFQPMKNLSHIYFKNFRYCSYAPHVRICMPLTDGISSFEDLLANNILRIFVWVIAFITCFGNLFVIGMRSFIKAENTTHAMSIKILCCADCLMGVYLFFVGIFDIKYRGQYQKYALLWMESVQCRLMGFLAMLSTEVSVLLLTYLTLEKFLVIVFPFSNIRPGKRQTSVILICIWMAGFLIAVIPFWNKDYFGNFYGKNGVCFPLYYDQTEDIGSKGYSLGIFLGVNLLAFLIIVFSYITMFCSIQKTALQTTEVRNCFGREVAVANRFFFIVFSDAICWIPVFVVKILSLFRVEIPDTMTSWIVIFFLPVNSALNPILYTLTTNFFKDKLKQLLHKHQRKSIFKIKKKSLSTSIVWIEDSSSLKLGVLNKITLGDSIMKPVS

human RXFP1 [5] = biological target: T1, human RXFP1; remark: listed apart in the source
mouse RXFP1 [6] = biological target: T2, mouse RXFP1; remark: listed apart in the source
human RXFP2 [7] = biological target: T3, human RXFP2; remark: listed apart in the source
human RXFP1 [8] = biological target: T1, human RXFP1; remark: listed apart in the source
mouse RXFP1 [9] = biological target: T2, mouse RXFP1; remark: listed apart in the source
human RXFP2 [10] = biological target: T3, human RXFP2; remark: listed apart in the source

biological activity (EC50), cAMP assay (human RXFP1 [1]) [pM]	EC50 hRXFP1 (M), cAMP assay (human RXFP1 [2]) [M]	EC50 mRXFP1 (M), cAMP assay (mouse RXFP1 [3]) [M]	EC50 hRXFP2 (M), cAMP assay (human RXFP2 [4]) [M]	EC50 hRXFP1 (M), cAMP assay (human RXFP1 [5]) [M]	EC50 mRXFP1 (M), cAMP assay (mouse RXFP1 [6]) [M]	EC50 hRXFP2 (M), cAMP assay (human RXFP2 [7]) [M]	EC50 hRXFP1 (M), cAMP assay (human RXFP1 [8]) [M]	EC50 mRXFP1 (M), cAMP assay (mouse RXFP1 [9]) [M]	EC50 hRXFP2 (M), cAMP assay (human RXFP2 [10]) [M]	Binder
~10	1.06e-11	1.74e-11	1.61e-08							B1
~80	8.27e-11	4.14e-11								B2
	4.47e-12	2.37e-12	1.78e-12	4.47e-12	2.37e-12	1.78e-12	4.47e-12	2.37e-12	1.78e-12	B3
